Test results reported in publication PMC2330244.
Read-outs that look alike come from different tables or passages of the source.

Legend:
Test in all cases: EMSA
p73α [1] = biological target: T1, p73α (UniProt O15350 1-636)
T1 sequence: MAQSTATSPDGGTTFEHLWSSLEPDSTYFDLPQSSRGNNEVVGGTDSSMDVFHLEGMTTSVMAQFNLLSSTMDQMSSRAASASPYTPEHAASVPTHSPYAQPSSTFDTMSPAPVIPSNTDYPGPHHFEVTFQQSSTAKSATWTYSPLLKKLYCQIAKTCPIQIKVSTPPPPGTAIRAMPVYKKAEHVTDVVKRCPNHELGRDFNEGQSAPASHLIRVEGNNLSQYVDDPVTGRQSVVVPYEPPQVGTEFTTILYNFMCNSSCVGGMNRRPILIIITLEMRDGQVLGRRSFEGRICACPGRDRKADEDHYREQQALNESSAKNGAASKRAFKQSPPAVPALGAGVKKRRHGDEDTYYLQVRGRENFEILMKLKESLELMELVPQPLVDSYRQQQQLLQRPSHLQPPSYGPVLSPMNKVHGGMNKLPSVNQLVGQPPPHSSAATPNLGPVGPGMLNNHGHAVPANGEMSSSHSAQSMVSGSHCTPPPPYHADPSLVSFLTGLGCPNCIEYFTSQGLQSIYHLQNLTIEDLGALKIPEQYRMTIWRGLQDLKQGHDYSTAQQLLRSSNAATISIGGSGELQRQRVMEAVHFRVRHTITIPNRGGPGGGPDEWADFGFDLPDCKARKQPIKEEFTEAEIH

p53 [2] = biological target: T2, p53 (human, UniProt P04637 1-393)
p73α+30 [3] = biological target: T3, p73α+30 (UniProt O15350 1-636+P04637:364-393, internal_change)
p53 [4] = biological target: T2, p53; remark: listed apart in the source
p73γ = biological target: T4, p73γ (UniProt O15350-3 1-475)
T4 sequence: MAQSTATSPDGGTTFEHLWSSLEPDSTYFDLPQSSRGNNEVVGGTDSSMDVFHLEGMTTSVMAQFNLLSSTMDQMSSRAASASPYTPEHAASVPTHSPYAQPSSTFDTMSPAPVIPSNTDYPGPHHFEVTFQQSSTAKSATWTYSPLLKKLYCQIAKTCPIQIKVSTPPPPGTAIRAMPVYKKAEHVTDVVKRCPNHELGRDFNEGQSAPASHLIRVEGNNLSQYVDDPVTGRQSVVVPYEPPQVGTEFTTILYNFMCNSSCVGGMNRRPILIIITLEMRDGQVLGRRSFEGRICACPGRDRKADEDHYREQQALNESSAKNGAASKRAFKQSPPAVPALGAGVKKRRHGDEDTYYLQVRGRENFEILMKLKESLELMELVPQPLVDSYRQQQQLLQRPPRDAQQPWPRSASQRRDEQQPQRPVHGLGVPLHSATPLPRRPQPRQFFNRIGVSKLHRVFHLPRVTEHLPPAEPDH

p73α+30 [5] = biological target: T3, p73α+30; remark: listed apart in the source
p73β = biological target: T5, p73β (UniProt O15350-2 1-499)
T5 sequence: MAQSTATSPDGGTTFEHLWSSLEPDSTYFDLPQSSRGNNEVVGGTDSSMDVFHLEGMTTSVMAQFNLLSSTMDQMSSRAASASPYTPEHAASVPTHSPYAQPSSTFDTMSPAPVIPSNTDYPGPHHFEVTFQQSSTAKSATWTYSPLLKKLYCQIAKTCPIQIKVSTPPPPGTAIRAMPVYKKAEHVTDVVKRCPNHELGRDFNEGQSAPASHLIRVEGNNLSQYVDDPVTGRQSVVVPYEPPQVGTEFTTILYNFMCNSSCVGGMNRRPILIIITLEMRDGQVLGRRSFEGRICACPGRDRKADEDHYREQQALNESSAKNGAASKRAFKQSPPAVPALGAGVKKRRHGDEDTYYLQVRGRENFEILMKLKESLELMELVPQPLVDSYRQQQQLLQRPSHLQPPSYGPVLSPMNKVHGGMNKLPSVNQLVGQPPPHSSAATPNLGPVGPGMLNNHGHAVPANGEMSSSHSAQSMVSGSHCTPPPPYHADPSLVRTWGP

p73δ = biological target: T6, p73δ (UniProt O15350-4 1-403)
T6 sequence: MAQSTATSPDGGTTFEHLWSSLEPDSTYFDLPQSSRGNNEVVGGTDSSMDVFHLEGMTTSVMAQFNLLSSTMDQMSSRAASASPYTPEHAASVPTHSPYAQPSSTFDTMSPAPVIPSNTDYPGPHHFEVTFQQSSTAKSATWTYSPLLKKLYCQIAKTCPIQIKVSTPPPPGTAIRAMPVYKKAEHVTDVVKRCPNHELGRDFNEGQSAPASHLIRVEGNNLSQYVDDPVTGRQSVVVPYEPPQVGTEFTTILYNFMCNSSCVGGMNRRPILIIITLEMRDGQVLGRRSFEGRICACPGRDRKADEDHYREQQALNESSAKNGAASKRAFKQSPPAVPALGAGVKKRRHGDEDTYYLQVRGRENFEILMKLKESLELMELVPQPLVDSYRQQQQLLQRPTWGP

p73α [6] = biological target: T1, p73α; remark: listed apart in the source
p53 [7] = biological target: T2, p53; remark: listed apart in the source
p73α+30 [8] = biological target: T3, p73α+30; remark: listed apart in the source

T2 sequence (P04637 whole entry): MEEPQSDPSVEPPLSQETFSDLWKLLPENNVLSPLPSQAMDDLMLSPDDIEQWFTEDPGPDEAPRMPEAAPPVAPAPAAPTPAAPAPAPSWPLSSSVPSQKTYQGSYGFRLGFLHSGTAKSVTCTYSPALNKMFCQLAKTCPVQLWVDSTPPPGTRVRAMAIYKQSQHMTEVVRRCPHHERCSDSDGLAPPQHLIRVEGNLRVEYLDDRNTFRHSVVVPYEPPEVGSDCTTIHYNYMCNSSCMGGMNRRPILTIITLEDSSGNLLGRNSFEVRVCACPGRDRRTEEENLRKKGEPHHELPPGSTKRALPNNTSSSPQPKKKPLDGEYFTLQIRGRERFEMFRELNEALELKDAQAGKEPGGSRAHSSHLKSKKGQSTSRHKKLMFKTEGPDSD

B1: p21-5' site 28 bp (dsDNA)
DNA 1: TCAGGAACATGTCCCAACATGTTGAGCT
DNA 2: AGCTCAACATGTTGGGACATGTTCCTGA
- binding result (p73α [1]): binds
- binding result (p53 [2]): binds
- binding signal (p73α+30 [3]): 1 fold (reference for 66 bp)

B2: p21-5' site 66 bp (dsDNA)
DNA 1: AGCATTGGCTTTCTGGCCATCAGGAACATGTCCCAACATGTTGAGCTCTGGCATAGAAGAGGCGCT
DNA 2: AGCGCCTCTTCTATGCCAGAGCTCAACATGTTGGGACATGTTCCTGATGGCCAGAAAGCCAATGCT
- binding result (p73α [1]): binds
- binding result (p53 [4]): binds
- binding result (p73γ): binds
- binding signal (p73α+30 [5]): ~5 fold vs 28 bp oligonucleotide

B3: p53 consensus (dsDNA)
DNA 1: GGGTAGACATGCCTAGACATGCCTAAGCTCCC
DNA 2: GGGAGCTTAGGCATGTCTAGGCATGTCTACCC
- binding result (p73β): binds
- binding result (p73δ): binds
- binding result (p73α [6]): binds
- binding result (p53 [7]): binds
- binding result (p73α+30 [8]): binds
